Data on one molecule can be found in patent publication US8703698B2, “Compositions and methods for treating atherosclerosis” (The University of Chicago, priority 2003, dated 2014).

The subject of data set [1] is J774 macrophages. The data set can be described thus: Cholesterol efflux from cholesterol-laden J774 macrophages to apolipoprotein liposomes with 8-bromo-cAMP or methyl-β-cyclodextrin. Type of data set: cell-based, mouse. The source says: The export process of cholesterol is coupled to the ATP binding cassette transporter (ABCA1) pathway. Lipid efflux to apolipoproteins has been shown previously to be stimulated by treatment of murine macrophages with cAMP analogues (Lin et al. 2002 Biochem Biophys Res. Commun. 290:663-669; Oram et al. 2000 J. Biol. Chem. 275:34508-34511). Also, the expression of ABCA1 is induced by cAMP treatment (Lin et al. 2002 Biochem Biophys Res. Commun. 290:663-669; Oram et al. 2000 J. Biol. Chem. 275:34508-34511). The inventors herein examined the effect of 8-bromo-cAMP (0.3 mM) on cholesterol efflux by liposomes containing various apolipoproteins when incubated with cholesterol-laden J774 macrophages. Such cells were pre-labeled with [^3H]-cholesterol in the presence of Sandoz 58-035, an ACAT inhibitor, to ensure that all of the radiolabeled cholesterol released from the cells was derived from the un-esterified cholesterol pool, and the cells were treated for 12 hours with 8-bromo-cAMP. This was followed by incubation with various acceptors. The fractional release of cellular labeled cholesterol was determined as a function of time.
To investigate whether an apolipoprotein free cholesterol acceptor such as cyclodextrin has the ability to catalyze the removal of cholesterol from macrophages, cholesterol-loaded and labeled J774 cells were incubated with liposomes and methyl-β-cyclodextrin (0.1 mM) (CD).
To examine whether cholesterol export from J774 cells to medium containing liposomes containing 2 μM murine apoA-1, SAA1.1 or SAA2.1 is a cAMP-dependent process, the radio-labeled cholesterol-laden cells were incubated overnight with 8-Br-cAMP (0.3 mM), prior to the addition of liposomes containing 2 μM murine apoA-1, SAA1.1 or SAA2.1 to the culture medium. Cholesterol efflux to the medium was then determined at the indicated time points as described above. Efflux of radioactive label to the medium was calculated as a percentage of total counts in each well.

Data set [2] concerns J774 macrophages. Particulars: Tam et al. 2002; cited from earlier work.
Data set [3] concerns cholesterol ester hydrolase. Kind of data set: Rate of hydrolysis of cholesteryl ester in cholesterol-laden J774 cells (cholesterol ester hydrolase activity). In kind it is cell-based, murine. Particulars: lipoproteins or protein liposomes; tissue culture. The protocol: Identification of the domain of SAA2.1 that is responsible for enhancing cholesterol ester hydrolase activity was performed in J774 cells preloaded with radio-labeled cholesteryl esters. These experiments were performed in the presence of Sandoz 58-035, an inhibitor of acyl CoA:cholesterol acyl transferase activity, to prevent re-esterification of liberated cholesterol and [^14C]oleate. Incubations proceeded for times ranging from 0 to 24 hours, following which the remaining quantities of [^14C]-labeled cholesteryl oleate in cells were measured to determine the rate of hydrolysis of cholesteryl ester. […] However, an equivalent amount of liposomes containing the synthetic peptide corresponding to amino acid residues 74-103 of murine SAA2.1 caused a 3-fold increase in cholesterol ester hydrolase activity in these cholesterol-laden murine cells. Newly confluent J774 cells were labeled with [^14C]-oleate during cholesterol loading with red blood cell membranes as described above. Cells were then incubated for up to 24 hours with 2 mL of DMEM containing 5% LPDS and 50 μg/mL of either native HDL, SAA-HDL, liposomes containing 2 μmoles of apoA-1, SAA1.1 or 2.1, or liposomes containing 0.5:mol synthetic peptides corresponding to amino acid residues 1-20 (SEQ ID NO:1), 21-50 (SEQ ID NO:2), 51-80 (SEQ ID NO:3) and 74-103 (SEQ ID NO:4) of murine SAA2.1. To determine the rate of cholesteryl ester hydrolysis, 2 μg/mL of the acyl CoA:cholesterol acyl transferase inhibitor Sandoz 58-035 (propanimide, 3-(decyldimethylsilyl)-N-[2-(4-methylphenyl)-1-phenylethyl]-(9Cl) was added during incubation with lipoproteins or liposomes to prevent […] and free cholesterol. To examine whether or not the rate of cholesteryl ester hydrolysis involved the lysosomal cholesteryl ester hydrolase, the cells were cultured in the presence of 50 μg/mL of either native HDL and chloroquine or SAA-HDL and chloroquine (100:M). Chloroquine is an agent that neutralizes the lysosomal proton gradient. At various time points, cellular lipids were extracted and analyzed for cholesteryl ester radioactivity as described above.

Data set [4] deals with T1, acyl CoA:cholesterol acyl transferase (Mus musculus, UniProt Q61263).
T1 construct: host or cells: J774 mouse macrophages, cholesterol-loaded
T1 sequence (Q61263 1-540): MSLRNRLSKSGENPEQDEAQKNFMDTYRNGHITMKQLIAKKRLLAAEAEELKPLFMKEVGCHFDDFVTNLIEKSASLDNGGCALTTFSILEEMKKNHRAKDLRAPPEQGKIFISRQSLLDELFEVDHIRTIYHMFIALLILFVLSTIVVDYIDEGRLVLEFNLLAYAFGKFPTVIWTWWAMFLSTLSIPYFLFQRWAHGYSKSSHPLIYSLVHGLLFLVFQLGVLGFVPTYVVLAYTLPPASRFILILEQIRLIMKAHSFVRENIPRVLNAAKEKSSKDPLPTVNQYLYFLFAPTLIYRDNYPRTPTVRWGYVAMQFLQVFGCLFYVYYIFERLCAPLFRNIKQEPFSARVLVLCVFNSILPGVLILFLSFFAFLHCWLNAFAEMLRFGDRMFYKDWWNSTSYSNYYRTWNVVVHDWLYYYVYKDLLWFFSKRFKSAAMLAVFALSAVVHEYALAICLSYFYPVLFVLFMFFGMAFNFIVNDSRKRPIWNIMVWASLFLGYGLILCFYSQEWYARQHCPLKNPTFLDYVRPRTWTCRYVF
The data set can be described thus: ACAT activity in macrophage post-nuclear homogenates. In kind it is biochemical, murine. The note with it: macrophage post-nuclear homogenates as enzyme source. The source says:
The in vitro effects of acute phase-HDL (AP-HDL;HDL-SAA) on acyl CoA:cholesterol acyl transferase and cholesterol ester hydrolase activities and on cellular cholesterol export were studied by the inventors using purified enzymes, cell homogenates, and whole cells. […] In contrast, murine SAA1.1 and apoA-1 had no effect. […] Using macrophages preloaded with radio-labeled cholesterol and injected intravenously into either inflamed or un-inflamed mice, it was shown that the inflamed mice, which have high SAA2.1 levels, effluxed cholesterol more rapidly and to a greater extent (6-fold greater) than their un-inflamed counterparts.

Data set [5] concerns the target T1, acyl CoA:cholesterol acyl transferase. Kind of data set: Incorporation of [14C]oleate into cholesteryl ester in cholesterol-laden macrophages (ACAT activity). Type of data set: cell-based, murine. The note with it: lipoproteins or protein liposomes; tissue culture. On the procedure: The incorporation of [^14C]oleate into cholesteryl ester was used as a measure of acyl CoA:cholesterol acyl transferase activity to identify compositions inhibiting the enzyme activity. The relative acyl CoA:cholesterol acyl transferase activity was determined in cholesterol-laden murine cells that had been cultured in medium in the absence of liposomes or in the presence of protein-free liposomes or liposomes containing 0.5 μM synthetic peptides corresponding to amino acids 1-20, 21-50, 51-80 and 74-103 of murine SAA2.1.
To load the cells with cholesterol, nearly confluent mono-layers were washed 3 times with phosphate buffered saline containing 2 mg/mL fatty acid-free bovine serum albumin (PBS-BSA) and incubated for 5 hours in DMEM supplemented with 5% lipoprotein-depleted serum (LPDS) (d>1.25 g/mL) and 175 μg of red blood cell membrane cholesterol. For the purpose of pool equilibration of added cholesterol, cell cultures were rinsed twice with PBS-BSA and incubated overnight in DMEM containing 5% LPDS. The relative activity of acyl CoA:cholesterol acyl transferase was determined in cholesterol-laden cells that had been cultured in medium containing no liposomes, protein-free liposomes or liposomes containing 0.5:M synthetic peptides corresponding to amino acid residues 1-20 (SEQ ID NO:1), 21-50 (SEQ ID NO:2), 51-80 (SEQ ID NO:3) or 74-103 (SEQ ID NO:4) of murine SAA2.1, respectively. Following 3 hours incubation with the above media, [^14C]-oleate was added and the cells were incubated for another 3 hour period (Mendez et al. J. Clin. Invest. 1994 94:1698-1705; Oram et al. Arterioscler. Thromb. 1991 11:403-414). Cells were chilled on ice and washed twice with PBS-BSA and twice with PBS. After addition of [^3H]-cholesteryl oleate (6000 dpm/well) as an internal standard, the lipids were extracted from the labeled cells and analyzed by thin-layer chromatography as described by Mendez et al. (J. Clin. Invest. 1994 94:1698-1705) and Oram et al. (Arterioscler. Thromb. 1991 11:403-414). The radioactivity in appropriate spots was measured to determine the incorporation of radioactivity into cholesteryl esters as a measure of acyl CoA:cholesterol acyl transferase activity.

B1: GFFSFIGEAFQGAGDMWRAYTDMKEAGWKDGDKYFHARGNYDAAQRGPGGVWAAEKISD ARESFQEFFGRGHEDTMADQEANRHGRSGKDPNYYRPPGLPAKY (protein, listed as Mus musculis)
chain: GFFSFIGEAFQGAGDMWRAYTDMKEAGWKDGDKYFHARGNYDAAQRGPGGVWAAEKISDARESFQEFFGRGHEDTMADQEANRHGRSGKDPNYYRPPGLPAKY
notes: full length murine serum amyloid A isoform 1.1
Turning to B1, in the data set on J774 macrophages [1] (8-bromo-cAMP 0.3 mM), the “stimulation of cholesterol efflux to liposomes with or without cAMP pre-treatment” value is “No stimulation of efflux”. Moreover, the “increase in the initial rate of cholesterol efflux with CD treatment” value in the data set with J774 macrophages [1] (methyl-β-cyclodextrin 0.1 mM plus liposomes) is listed as “not”. Further, in the data set on J774 macrophages [2], the “promotion of cholesterol efflux from cholesterol-laden macrophages compared to protein-free liposomes” value is listed as “not any more effective than protein-free liposomes”. Also, in data set [3], the “cholesterol ester hydrolase activity in intact cholesterol-laden macrophages” value is reported as “no effect on enzyme activities”. The “acyl CoA:cholesterol acyl transferase activity” value in data set [4] is “had no effect”. For the same molecule, in data set [5], the “acyl CoA:cholesterol acyl transferase activity in intact cholesterol-laden macrophages” value was “no effect on enzyme activities”.
